Experimental data: article PMC4346194

Assays:
Test in all cases: pull-down
[1] = molecular target: GST-tagged ΔIBB-importin α7 (human) (UniProt O60684)
[2] = molecular target: GST-tagged IBB3-importin α1 (human | mouse) (UniProt O00629)
[3] = molecular target: GST-tagged ΔIBB-importin α3 (human) (UniProt O00629)
[4] = molecular target: GST-tagged ΔIBB-importin α1 (mouse) (UniProt P52293)
[5] = molecular target: GST-tagged FL-importin α7 (human) (UniProt O60684)
[6] = molecular target: GST-tagged FL-importin α1 (mouse) (UniProt P52293)
[7] = molecular target: GST-tagged FL-importin α3 (human) (UniProt O00629)
Sequence of GST-tagged FL-importin α3 (human) (O00629 whole entry): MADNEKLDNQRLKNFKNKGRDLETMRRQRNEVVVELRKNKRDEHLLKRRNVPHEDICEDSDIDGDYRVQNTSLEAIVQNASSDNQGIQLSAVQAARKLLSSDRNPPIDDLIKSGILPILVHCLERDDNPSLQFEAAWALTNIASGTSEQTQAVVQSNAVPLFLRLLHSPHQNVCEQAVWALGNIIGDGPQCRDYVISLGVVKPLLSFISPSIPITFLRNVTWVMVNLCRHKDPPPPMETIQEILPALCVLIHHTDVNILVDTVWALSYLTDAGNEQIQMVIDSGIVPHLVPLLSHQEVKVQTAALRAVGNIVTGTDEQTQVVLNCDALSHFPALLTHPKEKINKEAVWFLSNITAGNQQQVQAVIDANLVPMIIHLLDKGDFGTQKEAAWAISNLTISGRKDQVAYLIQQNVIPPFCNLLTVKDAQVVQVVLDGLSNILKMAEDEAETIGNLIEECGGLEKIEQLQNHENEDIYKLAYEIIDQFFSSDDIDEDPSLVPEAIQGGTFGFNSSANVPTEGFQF

[8] = molecular target: GST-tagged IBB1-importin α3 (mouse | human) (UniProt P52293)

Sequence of MBP-tagged PB2-biNLS (res. 738-759) (P31345 738-759 limits assumed): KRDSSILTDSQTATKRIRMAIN
Sequence of GST-tagged ΔIBB-importin α7 (human) (O60684 59-536, stated change not applied): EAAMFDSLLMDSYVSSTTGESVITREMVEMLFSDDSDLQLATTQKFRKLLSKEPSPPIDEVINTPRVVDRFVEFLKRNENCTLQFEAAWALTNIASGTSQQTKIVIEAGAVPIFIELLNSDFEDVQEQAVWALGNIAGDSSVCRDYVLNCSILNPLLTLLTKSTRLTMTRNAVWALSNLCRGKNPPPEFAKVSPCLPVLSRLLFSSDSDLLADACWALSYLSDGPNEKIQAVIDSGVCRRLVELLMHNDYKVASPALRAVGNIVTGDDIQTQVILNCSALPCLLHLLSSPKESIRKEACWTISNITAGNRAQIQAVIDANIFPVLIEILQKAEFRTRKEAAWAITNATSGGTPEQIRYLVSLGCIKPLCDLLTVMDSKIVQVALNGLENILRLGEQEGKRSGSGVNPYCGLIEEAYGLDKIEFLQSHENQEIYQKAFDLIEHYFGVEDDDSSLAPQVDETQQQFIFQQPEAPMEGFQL

Question: For “MBP-tagged PB2-NLD (res. 678-759) (from UniProt P31345 678-759) (domain or fragment)”, which percent of importin α bound to cargo [1] is on record?
Answer: The percent of importin α bound to cargo was 100%.

Question: What about the percent of importin α bound to cargo [2] of the same substance?
Answer: The percent of importin α bound to cargo was 70%.

Question: What about the percent of importin α bound to cargo [3] of the same substance?
Answer: The percent of importin α bound to cargo was 100%.

Question: What about the percent of importin α bound to cargo [4] of the same substance?
Answer: Its percent of importin α bound to cargo is 100%.

Question: What about the percent of importin α bound to cargo [5] of the same substance?
Answer: The percent of importin α bound to cargo was 62%.

Question: And the percent of importin α bound to cargo [6]?
Answer: Its percent of importin α bound to cargo is 32%.

Question: Which percent of importin α bound to cargo [1] does the source give for “MBP-tagged PB2-biNLS (res. 738-759) (from UniProt P31345 738-759) (peptide)” here?
Answer: The percent of importin α bound to cargo was 81%.

Question: What about the percent of importin α bound to cargo [3] of the same substance?
Answer: The percent of importin α bound to cargo was 27%.

Question: What about the percent of importin α bound to cargo [7] of the same substance?
Answer: The percent of importin α bound to cargo was 7%.

Question: And the percent of importin α bound to cargo [4]?
Answer: Its percent of importin α bound to cargo is 51%.

Question: What about the percent of importin α bound to cargo [5] of the same substance?
Answer: Its percent of importin α bound to cargo is 21%.

Question: And the percent of importin α bound to cargo [6]?
Answer: Its percent of importin α bound to cargo is 7%.

Question: With “MBP-tagged nucleoplasmin NLS (NP-NLS, res. 155-170) (from UniProt P05221 155-170) (peptide)” as the substance, how does the percent of importin α bound to cargo [8] read?
Answer: The percent of importin α bound to cargo was 12%.

Question: And the percent of importin α bound to cargo [2]?
Answer: The percent of importin α bound to cargo was 57%.

Question: What about the percent of importin α bound to cargo [3] of the same substance?
Answer: The percent of importin α bound to cargo was 45%.
